Where a chain is given by its changes, count along the chain named.

This note sets out measurements from patent US20200199241A1 (Chugai, published 2020).

B1: IgG1-F651 (antibody)
heavy: QVQLQESGPGLVKPSETLSLTCAVSGHSISHDHAWSWVRQPPGEGLEWIGFISYSGITNYNPSLQGRVTISRDNSKNTLYLQMNSLRAEDTAVYYCARSLARTTAMDYWGEGTLVTVSSASTKGPSVFPLAPSSKSTSGGTAALGCLVKDYFPEPVTVSWNSGALTSGVHTFPAVLQSSGLYSLSSVVTVPSSSLGTQTYICNVNHKPSNTKVDKKVEPKSCDKTHTCPPCPAPELLGGPKVFLFPPKPKDTLYISRTPEVTCVVVDVSHEDPEVKFNWYVDGVEVHNAKTKPREEQYNSTYRVVSVLTVLHADWLNGKEYKCKVSNKALPAPIEKTISKAKGQPREPQVYTLPPSRDELTKNQVSLTCLVKGFYPSDIAVEWESNGQPENNYKTTPPVLDSDGSFFLYSKLTVDKSRWQQGNVFSCSVMHEALHYHYTQKSLSLSP
light: not shown
notes: EU numbering; copies: 2 + 2
B2: IgG1-F652 (antibody)
heavy: B1 heavy with P240D, K241S, A313Q
light: not shown
notes: copies: 2 + 2
B3: IgG1-F660 (antibody)
heavy: B1 heavy with V310P, A313Q, P331K
light: not shown
notes: EU numbering; copies: 2 + 2
B4: IgG1-F665 (antibody)
heavy: B1 heavy with K241S, N288D, V310P, A313Q
light: not shown
notes: EU numbering; copies: 2 + 2
B5: IgG1-F687 (antibody)
heavy: B1 heavy with K241S, K290I, V310P, A313Q
light: not shown
notes: EU numbering; copies: 2 + 2
B6: IgG1-F675 (antibody)
heavy: B1 heavy with K241S, N288R, V310P, A313Q
light: not shown
notes: EU numbering; copies: 2 + 2
B7: IgG1-F664 (antibody)
heavy: B1 heavy with K241S, N288A, V310P, A313Q
light: not shown
notes: EU numbering; copies: 2 + 2
B8: IgG1-F679 (antibody)
heavy: B1 heavy with K241S, N288W, V310P, A313Q
light: not shown
notes: EU numbering; copies: 2 + 2
B9: IgG1-F711 (antibody)
heavy: B1 heavy with T309Q
light: not shown
notes: EU numbering; copies: 2 + 2
B10: IgG1-F667 (antibody)
heavy: B1 heavy with K241S, N288G, V310P, A313Q
light: not shown
notes: EU numbering; copies: 2 + 2
B11: IgG1-F698 (antibody)
heavy: B1 heavy with K241S, N288E, T309Q
light: not shown
notes: EU numbering; copies: 2 + 2
B12: IgG1-F695 (antibody)
heavy: B1 heavy with K241S, K290W, V310P, A313Q
light: not shown
notes: EU numbering; copies: 2 + 2
B13: IgG1-F673 (antibody)
heavy: B1 heavy with K241S, N288P, V310P, A313Q
light: not shown
notes: EU numbering; copies: 2 + 2
B14: IgG1-F708 (antibody)
heavy: B1 heavy with K241S, N288E, T309Q, V310P, M430I
light: not shown
notes: EU numbering; copies: 2 + 2
B15: IgG1-F685 (antibody)
heavy: B1 heavy with K241S, K290G, V310P, A313Q
light: not shown
notes: EU numbering; copies: 2 + 2
B16: IgG1-F681 (antibody)
heavy: B1 heavy with K241S, K290A, V310P, A313Q
light: not shown
notes: EU numbering; copies: 2 + 2
B17: IgG1-F684 (antibody)
heavy: B1 heavy with K241S, K290F, V310P, A313Q
light: not shown
notes: EU numbering; copies: 2 + 2
B18: IgG1-F659 (antibody)
heavy: B1 heavy with P240R, V310P, A313Q
light: not shown
notes: EU numbering; copies: 2 + 2
B19: IgG1-F674 (antibody)
heavy: B1 heavy with K241S, N288Q, V310P, A313Q
light: not shown
notes: EU numbering; copies: 2 + 2
B20: IgG1-F678 (antibody)
heavy: B1 heavy with K241S, N288V, V310P, A313Q
light: not shown
notes: EU numbering; copies: 2 + 2
B21: IgG1-F710 (antibody)
heavy: B1 heavy with P240D, K241S, N288E, T309Q, M430I
light: not shown
notes: EU numbering; copies: 2 + 2
B22: IgG1-F671 (antibody)
heavy: B1 heavy with K241S, N288L, V310P, A313Q
light: not shown
notes: EU numbering; copies: 2 + 2
B23: IgG1-F669 (antibody)
heavy: B1 heavy with K241S, N288I, V310P, A313Q
light: not shown
notes: EU numbering; copies: 2 + 2
B24: IgG1-F690 (antibody)
heavy: B1 heavy with K241S, K290N, V310P, A313Q
light: not shown
notes: EU numbering; copies: 2 + 2
B25: IgG1-F682 (antibody)
heavy: B1 heavy with K241S, K290D, V310P, A313Q
light: not shown
notes: EU numbering; copies: 2 + 2
B26: IgG1-F677 (antibody)
heavy: B1 heavy with K241S, N288T, V310P, A313Q
light: not shown
notes: EU numbering; copies: 2 + 2
B27: IgG1-F689 (antibody)
heavy: B1 heavy with K241S, K290M, V310P, A313Q
light: not shown
notes: EU numbering; copies: 2 + 2
B28: IgG1-F692 (antibody)
heavy: B1 heavy with K241S, K290Q, V310P, A313Q
light: not shown
notes: EU numbering; copies: 2 + 2
B29: IgG1-F676 (antibody)
heavy: B1 heavy with K241S, N288S, V310P, A313Q
light: not shown
notes: EU numbering; copies: 2 + 2
B30: IgG1-F693 (antibody)
heavy: B1 heavy with K241S, K290R, V310P, A313Q
light: not shown
notes: EU numbering; copies: 2 + 2
B31: IgG1-F688 (antibody)
heavy: B1 heavy with K241S, K290L, V310P, A313Q
light: not shown
notes: EU numbering; copies: 2 + 2
B32: IgG1-F670 (antibody)
heavy: B1 heavy with K241S, N288K, V310P, A313Q
light: not shown
notes: EU numbering; copies: 2 + 2
B33: IgG1-F658 (antibody)
heavy: B1 heavy with P240K, V310P, A313Q
light: not shown
notes: EU numbering; copies: 2 + 2
B34: IgG1-F705 (antibody)
heavy: B1 heavy with K241S, N288E, V310P, A313Q, M430I
light: not shown
notes: EU numbering; copies: 2 + 2
B35: IgG1-F686 (antibody)
heavy: B1 heavy with K241S, K290H, V310P, A313Q
light: not shown
notes: EU numbering; copies: 2 + 2
B36: IgG1-F663 (antibody)
heavy: B1 heavy with N288E, T309Q, V310P
light: not shown
notes: EU numbering; copies: 2 + 2
B37: IgG1-F696 (antibody)
heavy: B1 heavy with K241S, K290Y, V310P, A313Q
light: not shown
notes: EU numbering; copies: 2 + 2
B38: IgG1-F656 (antibody)
heavy: B1 heavy with G239K, V310P, A313Q
light: not shown
notes: EU numbering; copies: 2 + 2
B39: IgG1-F657 (antibody)
heavy: B1 heavy with G239R, V310P, A313Q
light: not shown
notes: EU numbering; copies: 2 + 2
B40: IgG1-F654 (antibody)
heavy: B1 heavy with L237K, V310P, A313Q
light: not shown
notes: EU numbering; copies: 2 + 2
B41: IgG1-F707 (antibody)
heavy: B1 heavy with K241S, N288E, T309Q, V310P
light: not shown
notes: EU numbering; copies: 2 + 2
B42: IgG1-F694 (antibody)
heavy: B1 heavy with K241S, K290V, V310P, A313Q
light: not shown
notes: EU numbering; copies: 2 + 2
B43: IgG1-F672 (antibody)
heavy: B1 heavy with K241S, N288M, V310P, A313Q
light: not shown
notes: EU numbering; copies: 2 + 2
B44: IgG1-F709 (antibody)
heavy: B1 heavy with N288E, T309Q, M430I
light: not shown
notes: EU numbering; copies: 2 + 2
B45: IgG1-F691 (antibody)
heavy: B1 heavy with K241S, K290P, V310P, A313Q
light: not shown
notes: EU numbering; copies: 2 + 2
B46: IgG1-F683 (antibody)
heavy: B1 heavy with K241S, K290E, V310P, A313Q
light: not shown
notes: EU numbering; copies: 2 + 2
B47: IgG1-F655 (antibody)
heavy: B1 heavy with L237R, V310P, A313Q
light: not shown
notes: EU numbering; copies: 2 + 2
B48: IgG1-F661 (antibody)
heavy: B1 heavy with V310P, A313Q, P331R
light: not shown
notes: EU numbering; copies: 2 + 2
B49: IgG1-F706 (antibody)
heavy: B1 heavy with K241S, N288E, T309Q, M430I
light: not shown
notes: EU numbering; copies: 2 + 2
B50: IgG1-F666 (antibody)
heavy: B1 heavy with K241S, N288F, V310P, A313Q
light: not shown
notes: EU numbering; copies: 2 + 2
B51: IgG1-F699 (antibody)
heavy: B1 heavy with N288E, T309Q
light: not shown
notes: EU numbering; copies: 2 + 2
B52: IgG1-F697 (antibody)
heavy: B1 heavy with V310P, A313Q, N327G
light: not shown
notes: EU numbering; copies: 2 + 2
B53: IgG1-F700 (antibody)
heavy: B1 heavy with K241S, V310P, A313Q, L330E
light: not shown
notes: EU numbering; copies: 2 + 2
B54: IgG1-F668 (antibody)
heavy: B1 heavy with K241S, N288H, V310P, A313Q
light: not shown
notes: EU numbering; copies: 2 + 2
B55: IgG1-F680 (antibody)
heavy: B1 heavy with K241S, N288Y, V310P, A313Q
light: not shown
notes: EU numbering; copies: 2 + 2

T1 sequence (chain, as listed by the source limits assumed, chain 1 of 2): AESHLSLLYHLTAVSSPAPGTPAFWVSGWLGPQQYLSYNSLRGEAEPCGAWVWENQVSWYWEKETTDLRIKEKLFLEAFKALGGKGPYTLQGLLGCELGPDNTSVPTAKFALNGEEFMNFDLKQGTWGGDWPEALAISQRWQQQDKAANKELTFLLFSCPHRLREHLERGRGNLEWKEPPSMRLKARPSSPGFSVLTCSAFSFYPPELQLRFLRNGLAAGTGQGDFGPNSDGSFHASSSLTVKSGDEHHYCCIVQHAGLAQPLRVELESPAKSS
T1 sequence (P61769 21-119 limits assumed, chain 2 of 2): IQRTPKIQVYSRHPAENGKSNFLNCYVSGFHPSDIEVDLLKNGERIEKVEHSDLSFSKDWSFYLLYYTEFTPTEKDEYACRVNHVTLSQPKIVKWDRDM

The assay addresses T1, human FcRn (soluble human FcRn complexed with β2-microglobulin) (human, UniProt P61769 21-119, limits assumed).
T1 construct: also called hFcRn
In words: SPR, pH 7.0.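 Note: antibodies captured on a Protein L sensor chip with human FcRn injected as analyte, KD calculated from fitted association and dissociation rate constants.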 In general terms: Surface plasmon resonance follows binding to a sensor surface in real time, without labels.
A word on the Kd: it is a measure of binding affinity in units of concentration. A high value points to lower affinity. B1 came in with a Kd of 180 nM. The molecule B2 yielded a Kd of 240 nM. In the case of B3 it was 31 nM; in that of B4, 20 nM; in that of B5, 49 nM. Then B6, with 51 nM. With B7, the dissociation constant Kd worked out at 39 nM. B8 had a Kd of 17 nM. Then B9, with 65 nM; and B10, with 30 nM; and B11, with 22 nM.

As for B12, the Kd was 40 nM.

In the case of B13, the Kd amounted to 23 nM. Then B14, with 4.1 nM; and B15, with 53 nM; and B16, with 49 nM. With B17, the Kd is 51 nM. In the case of B18 it was 30 nM; in that of B19, 32 nM; in that of B20, 33 nM. In the case of B21 it was 15 nM; in that of B22, 22 nM. Then B23, with 35 nM; and B24, with 100 nM. B25 displayed a Kd of 82 nM. In the case of B26 it was 47 nM; in that of B27, 41 nM; in that of B28, 39 nM. In the case of B29 it was 32 nM. Consider B30, for which the affinity, expressed as Kd, was 36 nM. Then B31, with 28 nM; and B32, with 210 nM; and B33, with 32 nM. In turn, B34 displayed a Kd of 7.1 nM.

The molecule B35 returned a Kd of 46 nM.

The molecule B36 came in with a Kd of 6.4 nM.

Take B37: the Kd came out at 44 nM. Turning to B38, the Kd was 33 nM. In the case of B39 it was 32 nM.

The molecule B40 gave a Kd of 32 nM.

For B41, the Kd stood at 5.9 nM.

B42 came in with an equilibrium dissociation constant (Kd) of 47 nM.

B43 registered a Kd of 24 nM.

B44: binding was put at a Kd of 20 nM. Then B45, with 320 nM; and B46, with 50 nM. Then B47, with 34 nM; and B48, with 34 nM; and B49, with 18 nM. Then B50, with 21 nM.

In the case of B51, the Kd turned out to be 23 nM.

As to B52, the equilibrium dissociation constant (Kd) is 31 nM. In the case of B53 it was 52 nM; in that of B54, 40 nM. In the case of B55 it was 15 nM.
